Assays:
[1] = target: hemagglutinin of influenza A virus A/Puerto Rico/8/34 (influenza A virus A/Puerto Rico/8/34, UniProt P03452 18-565); test: cell-based or functional assay
[2] = target: T1, hemagglutinin of influenza A virus A/Hong Kong/1/68 (H3) (influenza A virus A/Hong Kong/1/68 (H3), UniProt Q91MA7 17-566); test: immunofluorescence on infected, fixed MDCK cells
T1 construct: whole, on cells; also called HK68 (H3)

[3] = target: baculovirus-expressed hemagglutinin of influenza virus A/Solomon Islands/06 (H1) (influenza A virus A/Solomon Islands/06 …)
[4] = target: baculovirus-expressed hemagglutinin of influenza virus A/California/04/09 (H1) (influenza A virus A/California/04/09 …)

B1: monoclonal antibody GG3 (antibody, V domains shown)
VH: QIQLVQSGPELKKPGETVKISCKASGYTFTNYGMNWVKQAPGKGLKWMGWINIYSGESTYVDDFTGRFAFSLETSASTAYLQINNLKNEDMATYFCARSGDTMITAGRSFFAMDYWGQGTSVTVSS
VL: DIQMTQSPSSLSASLGERVSLTCRASQEISGYLSWLQQKPDGTIKRLIYAASTLDSGVPKRFSGSRSGSDYSLSISSLESEDFADYYCLQYANYPWSFGGGTKLEIK
notes: also called mAb GG3; Mab GG3
For B1, the “IC50 (read off the curve), plaque reduction neutralization assay” value [1] was ~1 µg/mL, the binding result [2] was “no binding (tested: 5 µg/mL)” and the “EC50 (read off the curve)” value [3] was ~0.007 µg/mL. For the same binder, the “EC50 (read off the curve)” value [4] was ~0.01 µg/mL.
